In PMC7408065, “Heterodimeric Radiotracer Targeting PSMA and GRPR for Imaging of Prostate Cancer—Optimization of the Affinity towards PSMA by Linker Modification in Murine Model” (Pharmaceutics, 2020):
Numbered stars: 1 amine (or outer) side, 2 acyl side, 3 side chain; on linkers, the order of the positions; unused ones are H or OH. Square brackets hold non-standard residues; d marks the D form. Peptide text beside a SMILES is read from it. * marks the point of attachment. NOTA = O=C(O)CN1CCN(CC(=O)O)CCN(CC(=O)*)CC1; γGlu = O=C(O)[C@H](CCC(=O)[*:2])N[*:1]; Sta = CC(C)C[C@H](N)[C@@H](O)CC(=O)O; AEEA = NCCOCCOCC(=O)O; Aoc = NCCCCCCCC(=O)O; CO = O=C([*:1])[*:2]

How the values were obtained:
[1] = Distribution coefficient (LogD), n-octanol/water; assay type: physicochemical; conditions: indium-111 labeled compound
Protocol: The tube was vortexed, centrifuged and fractions (100 µL) from each phase were collected and activity was measured using a gamma counter. The experiment was repeated twice for each compound.

PC3-pip xenografts = test: in vivo; parameters: species or system BALB/c nu/nu mice; conditions: mouse
Protocol: (§1) The in vivo experiments were performed using BALB/c nu/nu mice bearing PC3-pip xenografts. The mice were implanted with 5 × 10^6 PC3-pip cells 12 days prior to the experiments. In vivo experiments were planned and performed in accordance with the national legislation on laboratory animals’ protection and were approved by the Ethics Committee for Animal Research in Uppsala, Sweden. PC3-pip tumor-bearing mice were injected with 40 pmol (30 kBq) of [^111In]In-BQ7812 per mouse. Groups were also co-injected with 7.5 nmol of non-labeled NOTA-PEG4-RM26 and/or 7.5 nmol of non-labeled PSMA-11 to block GRPR and/or PSMA. Mice were euthanized at 1, 3 and 24 h pi. Organs of interest were collected, weighed and the activity uptake in each organ was measured using a gamma counter.

in vivo = test: in vivo; parameters: species or system BALB/c nu/nu mice; conditions: BALB/c nu/nu, mouse, 40 pmol/animal, total radioactivity; for tissue uptake at 1 h: Activity uptake; for tissue to tissue ratio at 1 h / tissue to tissue ratio at 3 h / tissue to tissue ratio at 24 h: Tumor-to-organ ratio
Protocol: as §1

Question: With CC(C)C[C@H](NC(=O)C[C@H](O)[C@H](CC(C)C)NC(=O)[C@H](Cc1c[nH]cn1)NC(=O)CNC(=O)[C@@H](NC(=O)[C@H](C)NC(=O)[C@H](Cc1c[nH]c2ccccc12)NC(=O)[C@H](CCC(N)=O)NC(=O)[C@@H](Cc1ccccc1)NC(=O)COCCOCCNC(=O)[C@H](CCCCNC(=O)CN1CCN(CC(=O)O)CCN(CC(=O)O)CC1)NC(=O)[C@H](Cc1ccccc1)NC(=O)CCCCCCCNC(=O)CC[C@H](NC(=O)N[C@@H](CCC(=O)O)C(=O)O)C(=O)O)C(C)C)C(N)=O [BQ7812] ({Glu-CO-γGlu-Aoc}-FK(NOTA)[AEEA][dF]QWAVGH[Sta]L-NH2) as the molecule, how does the logD [1] read?
Answer: -1.44

Question: What does the source list for CC(C)C[C@H](NC(=O)C[C@H](O)[C@H](CC(C)C)NC(=O)[C@H](Cc1c[nH]cn1)NC(=O)CNC(=O)[C@@H](NC(=O)[C@H](C)NC(=O)[C@H](Cc1c[nH]c2ccccc12)NC(=O)[C@H](CCC(N)=O)NC(=O)[C@@H](Cc1ccccc1)NC(=O)COCCOCCNC(=O)[C@H](CCCCNC(=O)CN1CCN(CC(=O)O)CCN(CC(=O)O)CC1)NC(=O)[C@H](Cc1ccccc1)NC(=O)CCCCCCCNC(=O)CC[C@H](NC(=O)N[C@@H](CCC(=O)O)C(=O)O)C(=O)O)C(C)C)C(N)=O [[^111In]In-BQ7812, metal not drawn] ({Glu-CO-γGlu-Aoc}-FK(NOTA)[AEEA][dF]QWAVGH[Sta]L-NH2)?
Answer: tumor-to-liver ratio (PC3-pip xenografts): over five; tissue uptake at 1 h (in vivo; Lung): 1.34 %ID/g; tissue uptake at 1 h (in vivo; Pancreas): 5.83 %ID/g; tissue to tissue ratio at 1 h (in vivo; Blood): 11.7 ± 2.3; tissue to tissue ratio at 3 h (in vivo; Blood): 55.5 ± 15.6; tissue to tissue ratio at 24 h (in vivo; Blood): 68.9 ± 10.4; tissue to tissue ratio at 1 h (in vivo; Bone): 24.5 ± 3.25; tissue to tissue ratio at 3 h (in vivo; Bone): 35.1 ± 25.7; tissue to tissue ratio at 24 h (in vivo; Bone): 10.9 ± 2.46; tissue to tissue ratio at 1 h (in vivo; Kidney): 0.27 ± 0.07; tissue to tissue ratio at 3 h (in vivo; Kidney): 0.39 ± 0.09; tissue to tissue ratio at 24 h (in vivo; Kidney): 0.18 ± 0.02; tissue to tissue ratio at 1 h (in vivo; Liver): 4.56 ± 0.77; tissue to tissue ratio at 3 h (in vivo; Liver): 3.08 ± 1; tissue to tissue ratio at 24 h (in vivo; Liver): 1.04 ± 0.15; tissue to tissue ratio at 1 h (in vivo; Lung): 12.3 ± 1.34; tissue to tissue ratio at 3 h (in vivo; Lung): 25.3 ± 10; tissue to tissue ratio at 24 h (in vivo; Lung): 13.9 ± 1.65; tissue to tissue ratio at 1 h (in vivo; Muscle): 41 ± 7.76; tissue to tissue ratio at 3 h (in vivo; Muscle): 53.3 ± 24.4; tissue to tissue ratio at 24 h (in vivo; Muscle): 23.6 ± 4.58; tissue to tissue ratio at 1 h (in vivo; Pancreas): 2.77 ± 0.43; tissue to tissue ratio at 3 h (in vivo; Pancreas): 10.9 ± 3.05; tissue to tissue ratio at 24 h (in vivo; Pancreas): 8.19 ± 1.92; tissue to tissue ratio at 1 h (in vivo; Salivary glands): 18.7 ± 2.6; tissue to tissue ratio at 3 h (in vivo; Salivary glands): 20.6 ± 7.98; tissue to tissue ratio at 24 h (in vivo; Salivary glands): 7.39 ± 1.88; tissue to tissue ratio at 1 h (in vivo; Small intestine): 9.31 ± 1.8; tissue to tissue ratio at 3 h (in vivo; Small intestine): 13.4 ± 3.68; tissue to tissue ratio at 24 h (in vivo; Small intestine): 5.52 ± 2.17; tissue to tissue ratio at 1 h (in vivo; Spleen): 11.5 ± 2.37; tissue to tissue ratio at 3 h (in vivo; Spleen): 20.8 ± 5.1; tissue to tissue ratio at 24 h (in vivo; Spleen): 6.32 ± 1.59; tissue to tissue ratio at 1 h (in vivo; Stomach): 12.5 ± 2.36; tissue to tissue ratio at 3 h (in vivo; Stomach): 18.3 ± 2.8; tissue to tissue ratio at 24 h (in vivo; Stomach): 10.5 ± 2.28
